Source: patent US8741844B2, “Use of mutated antithrombins for treating or preventing coagulation disorders” (Universite Paris-Sud XI, priority 2007, dated 2014)
Positions count from the first letter of the chain named. In names and notes the source's numbering stands. Values belong to the molecule of their own block, whether it stands above or below them.

Tests used:
[1] = tested on: pentasaccharide bound plasma antithrombin (plasma anti-factor Xa activity); experiment: Rotachrom heparin anti factor Xa assay in pentasaccharide containing human plasma (competition with plasma antithrombin for pentasaccharide binding); type: biochemical; conditions: for virtual pentasaccharide concentration (residual anti-factor Xa activity): human plasma pool with 3 μg/ml pentasaccharide; for effect on anti-Xa activity of pentasaccharide containing plasma sample: human plasma, pre-incubation 30 min at 37° C.
Protocol: Anti factor Xa inhibitory activity of mutated antithrombins AT-R393H(SEQ ID NO: 4), AT-Pro394 (SEQ ID NO: 6), AT-ΔR393-5394 (SEQ ID NO: 18), AT-ΔR393 (SEQ ID NO: 8), AT-ΔS394 (SEQ ID NO: 10), AT-N135Q-R393H(SEQ ID NO: 14), AT-N135Q-Pro394 (SEQ ID NO: 16), AT-N135Q-ΔR393-S394 (SEQ ID NO: 24), AT-N135Q-ΔR393 (SEQ ID NO: 20), AT-N135Q-ΔS394 (SEQ ID NO: 22) is measured in pentasaccharide containing plasma. The plasma concentrations of pentasaccharides are defined on the basis on those measured in patients treated by the pentasaccharide under the conditions of a regular (curative) use of this molecule or in patients presenting an overdose of this drug, knowing that the optimal equilibrium concentration is 1.20-1.26 mg/L and the minimal equilibrium concentration is 0.46-0.62 mg/L during a curative pentasaccharide treatment (monograph, Arixtra®).
The anti factor Xa assay is performed using the Rotachrom® heparin method (Stago) adaptated for absorbance reading on a microplate reader (Dynatech MR 5000), or a STA analyser (Stago).
The procedure consists in mixing 30 μl of pentasaccharide containing plasma sample diluted four times in kinetic buffer, with 75 μl of chromogenic substrate (1 mM, provided in Rotachrom® heparin kit). After 4 min incubation, 75 μl of bovine factor Xa (24 nM, Rotachrom® heparin kit) is added to the plasma-substrate mixture. The factor Xa activity is measured a 405 nm absorbance increase, resulting from cleavage of the chromogenic substrate, using a microplate reader (Dynatech MR 5000). The rate constant (k), proportional to anti-factor Xa activity, is obtained by fitting the substrate hydrolysis curve to equation (3) or (3′).
Firstly, the assay is calibrated in citrated (0.105 M) normal human plasma containing pentasaccharide concentrations ranging from 0 to 3 mg/L. A standard curve is generated and anti-factor Xa activity is expressed as mg of pentasaccharide per liter of plasma.
Secondly, to evaluate the anti factor Xa inhibitory activity of mutated antithrombins, the mutated antithrombin (0-0.6 g/L, preferably 0.15-0.6 g/L, final concentration, in kinetic buffer) is pre-incubated with an equal volume of pentasaccharide (0-3 mg/L, preferably 1-3 mg/L) containing plasma samples, during 30 min at 37° C.
Under these conditions, the mutated antithrombin concentration range from one to four times that of the plasma antithrombin level, which is compatible with a therapeutic use of antithrombin. Indeed, very high doses of mutated antithrombin, with a 5 fold increase in plasma antithrombin level, have already been used during clinical trials without side effects (Leitner J M, Firbas C, Mayr F B, Reiter R A, Steinlechner B, Jilma B., Recombinant human antithrombin inhibits thrombin formation and interleukin 6 release in human endotoxemia. Clin Pharmacol Ther. 2006 January; 79(1):23-34). Anti factor Xa inhibitory activity is then evaluated as previously described.
To estimate whether mutated antithrombin can be used as reversal of pentasaccharide in case of over-dosing, AT-N135Q-R393H(SEQ ID NO: 14) and AT-N135Q-Pro394 (SEQ ID NO: 16) are tested in Rotachrom® heparin assay for their ability to restore factor Xa activity. Under conditions of treatment for prevention of venous thromboembolic events, optimal pentasaccharide concentration ranges between 1.2 and 1.26 μg/mL in plasma. To mimic an over-dosing, pentasaccharide is added to human plasma pool at concentration of 3 μg/ml. Rotachrom® heparin assay is then performed by incubation of plasma over-dosed with pentasaccharide in the presence of mutated antithrombin in a ratio 1/1, 2/1, and 4/1 compared to plasma antithrombin concentration (i.e. 0.15, 0.3, 0.6 g/l). In this ex vivo assay, anti-factor Xa activity is proportional to the amount of pentasaccharide bound natural antithrombin present in tested plasma, which amount is directly proportional to pentasaccharide concentration in plasma. […]

[2] = tested on: plasma anti FXa activity in mice treated with pentasaccharide; experiment: Murine model: mutated antithrombins as antidotes of fondaparinux, plasma anti FXa activity; type: in vivo, mouse; conditions: injection of mutated antithrombin after fondaparinux
Protocol: The efficiency of the mutated antithrombins AT-R393H(SEQ ID NO: 4), AT-Pro394 (SEQ ID NO: 6), AT-ΔR393-S394 (SEQ ID NO: 18), AT-ΔR393 (SEQ ID NO: 8), AT-ΔS394 (SEQ ID NO: 10), AT-N135Q-R393H(SEQ ID NO: 14), AT-N135Q-Pro394 (SEQ ID NO: 16), AT-N135Q-ΔR393-S394 (SEQ ID NO: 24), AT-N135Q-ΔR393 (SEQ ID NO: 20), AT-N135Q-A5394 (SEQ ID NO: 22) as antidotes is evaluated in a murine model.
The different drugs to be tested (fondaparinux, low molecular weight heparin, full length heparin and the mutated antithrombins) are administrated by intra-venous injection in the caudal vein to avoid the variability encountered when administration is performed subcutaneously. However, Heparin derivatives (fondaparinux, low molecular weight heparin and full length heparin) could also be administrated subcutaneously.
The blood is collected by punction in cave vein into tubes containing 0.105 mol/L trisodium citrate (1:10). Platelet-poor plasma is obtained by centrifugation at 2300 g for 10 minutes at 12° C. and stored at −80° C. until use.
The following elements are determined: • the doses of fondaparinux inducing an overdose in mice, • the mutated antithrombins time course, and in particular the time required to observe a maximal biological effect, • the minimal doses of mutated antithrombins necessary to neutralize fondaparinux.
For each of these experiments, 4 groups of 5 mice each are used: • In the first group mice receive fondaparinux vehicle and then antidote (mutated antithrombin) vehicle. • In the second group, mice receive fondaparinux and then antidote vehicle • In the third group, mice receive fondaparinux vehicle and then antidote • In the last group, mice receive fondaparinux and then antidote
Anti FXa activity measurements is performed as previously described using a Stachrom Heparin® kit on a STA (Stago, France) or a Rotachrom Heparin® kit with procedure adapted for measurement in microplate reader (Dynatech MR 5000). A calibration curve with pentasaccharide is performed, allowing the expression of the results in nmol/ml (or in mg/L) of plasma.
Thus, the antidote (mutated antithrombins) is administered intravenously, 5 min after the intra-venous injection of the fondaparinux, and 5, 15 or 30 min after the subcutaneous injection of the fondaparinux.
The mutated antithrombin time course is studied by measuring the plasma anti-Xa activity 5 min, 10 min, 20 min and 40 min after the antidote administration.
Once the time of action determined, a dose response curve is performed in vivo to determine the dose of antidote necessary to obtain a decrease in Fondaparinux plasma concentration within the therapeutic range around 1.2 nmol/ml (or 2 mg/L), or around 0.7 nmol/ml (or 1.2 mg/L).

[3] = mutated antithrombin ratio 1/1 to plasma antithrombin (0.15 g/l)

Molecule: AT-N135Q-R393H: human antithrombin with substitution at 393 by Histidine and at 135 by Glutamine
virtual pentasaccharide concentration (residual anti-factor Xa activity) [1, 3]: 1.04 µg/mL
virtual pentasaccharide concentration (residual anti-factor Xa activity) ([1]; ratio 2/1 (0.3 g/l)): 0.49 µg/mL
virtual pentasaccharide concentration (residual anti-factor Xa activity) ([1]; ratio 4/1 (0.6 g/l)): 0.29 µg/mL
effect on anti-Xa activity of pentasaccharide containing plasma sample [1]: significant decrease
plasma anti FXa activity in mice treated with pentasaccharide [2]: significant decrease

effect on anti-Xa activity of pentasaccharide containing plasma sample [1]: significant decrease
Molecule: AT-R393H: human antithrombin (SEQ ID NO:2) with substitution of the amino acid at position 393 by Histidine
plasma anti FXa activity in mice treated with pentasaccharide [2]: significant decrease

effect on anti-Xa activity of pentasaccharide containing plasma sample [1]: significant decrease
B1: AT-N135Q-ΔR393-S394: human antithrombin with deletion of positions 393 and 394 and substitution at 135 by Glutamine (protein, listed as Homo sapiens)
chain: HGSPVDICTAKPRDIPMNPMCIYRSPEKKATEDEGSEQKIPEATNRRVWELSKANSRFATTFYQHLADSKNDNDNIFLSPLSISTAFAMTKLGACNDTLQQLMEVFKFDTISEKTSDQIHFFFAKLNCRLYRKAQKSSKLVSANRLFGDKSLTFNETYQDISELVYGAKLQPLDFKENAEQSRAAINKWVSNKTEGRITDVIPSEAINELTVLVLVNTIYFKGLWKSKFSPENTRKELFYKADGESCSASMMYQEGKFRYRRVAEGTQVLELPFKGDDITMVLILPKPEKSLAKVEKELTPEVLQEWLDELEEMMLVVHMPRFRIEDGFSLKEQLQDMGLVDLFSPEKSKLPGIVAEGRDDLYVSDAFHKAFLEVNEEGSEAAASTAVVIAGLNPNRVTFKANRPFLVFIREVPLNTIIFMGRVANPCVK
plasma anti FXa activity in mice treated with pentasaccharide [2]: significant decrease

virtual pentasaccharide concentration (residual anti-factor Xa activity) [1, 3]: 1.16 µg/mL
virtual pentasaccharide concentration (residual anti-factor Xa activity) ([1]; ratio 2/1 (0.3 g/l)): 0.59 µg/mL
virtual pentasaccharide concentration (residual anti-factor Xa activity) ([1]; ratio 4/1 (0.6 g/l)): 0.36 µg/mL
effect on anti-Xa activity of pentasaccharide containing plasma sample [1]: significant decrease
B2: AT-N135Q-Pro394: human antithrombin with Proline inserted between 393 and 394 and substitution at 135 by Glutamine (protein, listed as Homo sapiens)
chain: HGSPVDICTAKPRDIPMNPMCIYRSPEKKATEDEGSEQKIPEATNRRVWELSKANSRFATTFYQHLADSKNDNDNIFLSPLSISTAFAMTKLGACNDTLQQLMEVFKFDTISEKTSDQIHFFFAKLNCRLYRKAQKSSKLVSANRLFGDKSLTFNETYQDISELVYGAKLQPLDFKENAEQSRAAINKWVSNKTEGRITDVIPSEAINELTVLVLVNTIYFKGLWKSKFSPENTRKELFYKADGESCSASMMYQEGKFRYRRVAEGTQVLELPFKGDDITMVLILPKPEKSLAKVEKELTPEVLQEWLDELEEMMLVVHMPRFRIEDGFSLKEQLQDMGLVDLFSPEKSKLPGIVAEGRDDLYVSDAFHKAFLEVNEEGSEAAASTAVVIAGRPSLNPNRVTFKANRPFLVFIREVPLNTIIFMGRVANPCVK
plasma anti FXa activity in mice treated with pentasaccharide [2]: significant decrease

effect on anti-Xa activity of pentasaccharide containing plasma sample [1]: significant decrease
B3: AT-N135Q-ΔR393: human antithrombin with deletion of position 393 and substitution at 135 by Glutamine (protein, listed as Homo sapiens)
chain: HGSPVDICTAKPRDIPMNPMCIYRSPEKKATEDEGSEQKIPEATNRRVWELSKANSRFATTFYQHLADSKNDNDNIFLSPLSISTAFAMTKLGACNDTLQQLMEVFKFDTISEKTSDQIHFFFAKLNCRLYRKAQKSSKLVSANRLFGDKSLTFNETYQDISELVYGAKLQPLDFKENAEQSRAAINKWVSNKTEGRITDVIPSEAINELTVLVLVNTIYFKGLWKSKFSPENTRKELFYKADGESCSASMMYQEGKFRYRRVAEGTQVLELPFKGDDITMVLILPKPEKSLAKVEKELTPEVLQEWLDELEEMMLVVHMPRFRIEDGFSLKEQLQDMGLVDLFSPEKSKLPGIVAEGRDDLYVSDAFHKAFLEVNEEGSEAAASTAVVIAGSLNPNRVTFKANRPFLVFIREVPLNTIIFMGRVANPCVK
plasma anti FXa activity in mice treated with pentasaccharide [2]: significant decrease

effect on anti-Xa activity of pentasaccharide containing plasma sample [1]: significant decrease
B4: AT-N135Q-ΔS394: human antithrombin with deletion of position 394 and substitution at 135 by Glutamine (protein, listed as Homo sapiens)
chain: B3 chain with S393R
plasma anti FXa activity in mice treated with pentasaccharide [2]: significant decrease
